± gives the uncertainty stated by the source.
Experiment: self-splicing fitness, log relative to wild type (ln ratio); higher = more splicing; Tetrahymena group I intron in knt gene, E. coli kanamycin selection, DiMSum; sequences stand for … in CUCUCU…GGAGGGAAAAGUUAUCAGGCAUGCACCUGGUAGCUAGUCUUUAAACCAAUAGAUUGCAUCGGUUUAAAAGGCAAGACCGUCAAAUUGCGGGAAAGGGGUCAACAGCCGUUCAGUACCAAGUCUCAGGGGAAACUUUGAGAUGGCCUUGCAAAGGGUAUGGUAAUAAGCUGACGGACAUGGUCCUAACCACGCAGCCAAGUCCUAAGUCAACAGAUCUUCUGUUGAUAUGGAUGCAGUUCACAGACUAAAUGUCGGUCGGGGAAGAUGUAUUCUUCUCAUAAGAUAUAGUCGGACCUCUCCUUAAUGGGAGCUAGCGGAUGAAGUGAUGCAACACUGGAGCCGCUGGGAACUAAUUUGUAUGCGAAAGUAUAUUGAUUAGUUUUGGAGUACUCGUGGUCG
Procedure, shortened: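 Pooled colonies went to amplicon sequencing on an Illumina HiSeq 2500 after six replicate transformations. The plates were LB agar with 100 μg/mL carbenicillin, 50 μM IPTG and 0.2% rhamnose, with or without 25 μg/mL kanamycin, incubated overnight at 37°C or 30°C. The E. coli BL21(DE3) library had all eight P1ex-region intron nucleotides randomised, the intron placed in the knt kanamycin-resistance gene on pET-22b(+). DiMSum fitness is the error-weighted combination of replicate fold changes, kanamycin against none, normalised to wild type.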

Sequence | self-splicing fitness (ln) (30 °C) | self-splicing fitness (ln) (37 °C)
AGCCAGCAAUAUUACGUCCG | -3.12 ± 0.24 | -1.71 ± 0.29
AGCCAGCAAUAUUACGUGAC | -3.29 ± 0.17 | -2.05 ± 0.19
AGCCAGCAAUAUUACGUGGA | -3.81 ± 0.18 | -2.65 ± 0.14
AGCCAGCAAUAUUACGUGGG | -3.16 ± 0.13 | -1.3 ± 0.11
AGCCAGCAAUAUUACGUGUU | -3.62 ± 0.11 | -1.56 ± 0.087
AGCCAGCAAUAUUACGUUAG | -3.07 ± 0.14 | -2.28 ± 0.16
AGCCAGCAAUAUUACGUUGC | -2.87 ± 0.18 | -3.28 ± 0.27
AGCGAGCAAUAUUACGAAGC | -3.45 ± 0.43 | -2.17 ± 0.25
AGCGAGCAAUAUUACGAAUU | – | -1.41 ± 0.34
AGCGAGCAAUAUUACGACAA | -3.33 ± 0.41 | -1.23 ± 0.3
AGCGAGCAAUAUUACGACGU | -1.74 ± 0.083 | -0.339 ± 0.11
AGCGAGCAAUAUUACGAGCA | -0.722 ± 0.11 | -0.526 ± 0.11
AGCGAGCAAUAUUACGCAAA | -3.01 ± 0.36 | -2.52 ± 0.48
AGCGAGCAAUAUUACGCAGC | -4.05 ± 0.46 | –
AGCGAGCAAUAUUACGCCAA | -3.98 ± 0.25 | -1.56 ± 0.16
AGCGAGCAAUAUUACGCCCA | -2.07 ± 0.39 | -1.52 ± 0.34
AGCGAGCAAUAUUACGCGGG | -2.55 ± 0.24 | -2.54 ± 0.36
AGCGAGCAAUAUUACGCUAA | -1.62 ± 0.25 | -1.85 ± 0.3
AGCGAGCAAUAUUACGCUCU | -3.64 ± 0.35 | -2.61 ± 0.29
AGCGAGCAAUAUUACGGCUA | -0.634 ± 0.19 | -0.479 ± 0.13
AGCGAGCAAUAUUACGGGCC | -3.58 ± 0.47 | -2.88 ± 0.43
AGCGAGCAAUAUUACGUAUU | -3.54 ± 0.17 | -1.79 ± 0.16
AGCGAGCAAUAUUACGUCGA | -2.82 ± 0.27 | -2.3 ± 0.28
AGCGAGCAAUAUUACGUUAC | -3.84 ± 0.21 | -2.26 ± 0.23
AGCGAGCAAUAUUACGUUGA | – | -2.11 ± 0.16

Sequence | self-splicing fitness (ln) (30 °C) | self-splicing fitness (ln) (37 °C)
AGCGAGCAAUAUUACGUUGC | – | -3.69 ± 0.42
AGCUAGCAAUAUUACGACAG | -2.36 ± 0.21 | -1.64 ± 0.24
AGCUAGCAAUAUUACGACAU | -0.509 ± 0.012 | -0.147 ± 0.032
AGCUAGCAAUAUUACGACCA | -0.512 ± 0.17 | -0.124 ± 0.17
AGCUAGCAAUAUUACGAGAG | -2.83 ± 0.15 | -3.13 ± 0.28
AGCUAGCAAUAUUACGAGCG | -0.417 ± 0.085 | -0.0421 ± 0.11
AGCUAGCAAUAUUACGAGGG | -3.75 ± 0.21 | -1.34 ± 0.14
AGCUAGCAAUAUUACGAGUC | -3.89 ± 0.22 | -2.08 ± 0.19
AGCUAGCAAUAUUACGAUCC | 0.0246 ± 0.14 | 0.559 ± 0.16
AGCUAGCAAUAUUACGAUCU | 0.121 ± 0.12 | 0.532 ± 0.13
AGCUAGCAAUAUUACGAUUC | -1.8 ± 0.11 | -0.417 ± 0.15
AGCUAGCAAUAUUACGAUUG | -2.89 ± 0.24 | -1.98 ± 0.23
AGCUAGCAAUAUUACGCAAA | -1.8 ± 0.18 | -2.24 ± 0.24
AGCUAGCAAUAUUACGCAUC | -2.95 ± 0.36 | –
AGCUAGCAAUAUUACGCAUG | -2.12 ± 0.16 | -1.06 ± 0.12
AGCUAGCAAUAUUACGCCAA | -1.7 ± 0.27 | -1.75 ± 0.2
AGCUAGCAAUAUUACGCCCA | -1.5 ± 0.21 | -0.441 ± 0.35
AGCUAGCAAUAUUACGCCCC | -0.339 ± 0.24 | -0.157 ± 0.34
AGCUAGCAAUAUUACGCGAC | -3.48 ± 0.47 | -2.38 ± 0.43
AGCUAGCAAUAUUACGCUCA | -1.67 ± 0.25 | -2.11 ± 0.37
AGCUAGCAAUAUUACGGACG | -0.719 ± 0.075 | -0.105 ± 0.1
AGCUAGCAAUAUUACGGACU | 8.42e-05 ± 0.097 | 0.516 ± 0.12
AGCUAGCAAUAUUACGGCAG | -1.19 ± 0.1 | -1.08 ± 0.12
AGCUAGCAAUAUUACGGCGC | -1.1 ± 0.093 | -0.362 ± 0.14

From the supplement of paper PMC7877785
